Assay results as given in paper PMC6539845.
Read-outs that look alike come from different tables or passages of the source. Blank lines part the entries; values can stand above or below the substance they belong to.

Columns and labels:
[1] = target: single-ring α7 mutant α7^SR (S96D, S100D, F102R, Y104R) (human); test: native MS; α4 or α6 (4 μM monomers) mixed with α7^SR (4 μM heptamer), 20 °C, 1 h; α2 incubated with α7^SR before buffer exchange; 150 mM ammonium acetate
[2] = target: monomeric α7 mutant α7* (N-terminal residues 1-22 replaced with a hexahistidine-containing segment) (human) (UniProt P25788); test: SEC; α1–α6 (20 μM monomers) mixed with an equimolar amount of α7*, 20 °C, 1 h; SDS-PAGE (CBB) of the purified complexes
[3] = target: human proteasome α7 subunit, wild type (human) (UniProt P25788); test: native MS; α4 or α6 (4 μM monomers) mixed with α7 (2 μM tetradecamer), 20 °C, 1 h, 150 mM ammonium acetate
[4] = target: human proteasome α6 subunit, short isoform (human) (UniProt P25786); test: native MS; single proteins, 5–20 μM monomers, 150 mM ammonium acetate (pH 6.8–8.0), nanoflow electrospray
[5] = target: human proteasome α7 subunit, wild type (human) (UniProt P25788); test: SEC; wild-type α7 in the presence of α1–α6 or α7* (20 μM monomers); loss of the tetradecamer peak
[6] = target: human proteasome α7 subunit, wild type (human) (UniProt P25788); test: native MS; α4 or α6 (4 μM monomers) mixed with α7 (2 μM tetradecamer), 20 °C, 1 h, 150 mM ammonium acetate; remark: listed apart in the source
[7] = target: human proteasome α7 subunit, wild type (human) (UniProt P25788); test: native MS; single proteins, 5–20 μM monomers, 150 mM ammonium acetate (pH 6.8–8.0), nanoflow electrospray
[8] = target: single-ring α7 mutant α7^SR (S96D, S100D, F102R, Y104R) (human); test: atomic force microscopy; α7^SR alone (Figure S2); height of the ring
[9] = target: single-ring α7 mutant α7^SR (S96D, S100D, F102R, Y104R) (human); test: native MS; single proteins, 5–20 μM monomers, 150 mM ammonium acetate (pH 6.8–8.0), nanoflow electrospray
[10] = target: single-ring α7 mutant α7^SR (S96D, S100D, F102R, Y104R) (human); test: as above; remark: listed apart in the source

Sequence of human proteasome α6 subunit, short isoform (P25786 whole entry, canonical isoform): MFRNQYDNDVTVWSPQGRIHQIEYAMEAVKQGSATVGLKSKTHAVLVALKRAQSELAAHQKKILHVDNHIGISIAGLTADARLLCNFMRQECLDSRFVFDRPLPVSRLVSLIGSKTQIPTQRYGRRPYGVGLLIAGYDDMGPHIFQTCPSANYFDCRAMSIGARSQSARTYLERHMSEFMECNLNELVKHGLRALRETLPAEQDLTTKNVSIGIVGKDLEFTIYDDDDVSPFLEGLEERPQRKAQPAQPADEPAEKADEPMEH
Sequence of human proteasome α7 subunit, wild type (human) (P25788 whole entry, canonical isoform): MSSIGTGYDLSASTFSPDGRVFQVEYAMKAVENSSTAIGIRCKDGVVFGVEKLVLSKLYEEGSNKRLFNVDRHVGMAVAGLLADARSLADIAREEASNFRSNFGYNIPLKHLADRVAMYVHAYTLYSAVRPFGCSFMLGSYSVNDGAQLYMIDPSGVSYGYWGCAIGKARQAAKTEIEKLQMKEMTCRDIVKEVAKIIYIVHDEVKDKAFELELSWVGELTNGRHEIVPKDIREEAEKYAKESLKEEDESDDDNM
Sequence of human proteasome α4 subunit (O14818 whole entry): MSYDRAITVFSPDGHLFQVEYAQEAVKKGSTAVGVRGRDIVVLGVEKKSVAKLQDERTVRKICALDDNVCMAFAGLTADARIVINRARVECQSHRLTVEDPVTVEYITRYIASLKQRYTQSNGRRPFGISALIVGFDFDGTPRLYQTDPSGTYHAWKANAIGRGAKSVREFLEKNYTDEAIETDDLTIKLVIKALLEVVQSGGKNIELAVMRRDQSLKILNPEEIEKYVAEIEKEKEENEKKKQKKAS
Sequence of human proteasome α2 subunit (P25787 whole entry): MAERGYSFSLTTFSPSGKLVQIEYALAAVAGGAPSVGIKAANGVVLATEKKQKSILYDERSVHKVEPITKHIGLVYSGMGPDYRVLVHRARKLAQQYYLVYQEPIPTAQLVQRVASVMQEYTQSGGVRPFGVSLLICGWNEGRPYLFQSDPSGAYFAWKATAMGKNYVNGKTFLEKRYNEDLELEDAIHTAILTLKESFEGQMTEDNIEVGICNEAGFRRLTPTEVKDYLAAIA
Sequence of human proteasome α7 subunit, wild type (P25788 whole entry): as the sequence (P25788 whole entry, canonical isoform) above

stoichiometry N (α7^SR subunits per α2) [1]: 7
Substance: human proteasome α2 subunit (from UniProt P25787 1-234) (natural protein)

stoichiometry N [8]: 7 | stoichiometry N [9]: 7 | stoichiometry N [10]: 14
Substance: single-ring α7 mutant α7^SR (S96D, S100D, F102R, Y104R) (natural protein)

The remaining lines, values behind:

Substance: human proteasome α4 subunit (from UniProt O14818 1-248) (natural protein)
stoichiometry N (α7^SR subunits per α4) [1]: 7 | stoichiometry N [2]: 1.2 α7· per α4

Substance: human proteasome α6 subunit, short isoform (from UniProt P25786 1-263) (natural protein)
stoichiometry N (α7^SR subunits per α6) [1]: 7 | stoichiometry N (α7 subunits per α6) [3]: 7 | stoichiometry N [4]: 2 | percent of the α7 tetradecamer disrupted into smaller complexes [5]: 50% | stoichiometry N (α7 subunits per α6) [6]: 14

Substance: human proteasome α7 subunit, wild type (from UniProt P25788 1-255) (natural protein)
stoichiometry N [7]: 14
